Experimental findings from patent publication US20240301052A1 (LANOVA MEDICINES DEVELOPMENT, published 2024) are described below.

Where two headings read alike, the source gives them in different places.

Assay [1] addresses T1, human SLC34A2 (human, UniProt O95436 1-690).
T1 sequence (looked up): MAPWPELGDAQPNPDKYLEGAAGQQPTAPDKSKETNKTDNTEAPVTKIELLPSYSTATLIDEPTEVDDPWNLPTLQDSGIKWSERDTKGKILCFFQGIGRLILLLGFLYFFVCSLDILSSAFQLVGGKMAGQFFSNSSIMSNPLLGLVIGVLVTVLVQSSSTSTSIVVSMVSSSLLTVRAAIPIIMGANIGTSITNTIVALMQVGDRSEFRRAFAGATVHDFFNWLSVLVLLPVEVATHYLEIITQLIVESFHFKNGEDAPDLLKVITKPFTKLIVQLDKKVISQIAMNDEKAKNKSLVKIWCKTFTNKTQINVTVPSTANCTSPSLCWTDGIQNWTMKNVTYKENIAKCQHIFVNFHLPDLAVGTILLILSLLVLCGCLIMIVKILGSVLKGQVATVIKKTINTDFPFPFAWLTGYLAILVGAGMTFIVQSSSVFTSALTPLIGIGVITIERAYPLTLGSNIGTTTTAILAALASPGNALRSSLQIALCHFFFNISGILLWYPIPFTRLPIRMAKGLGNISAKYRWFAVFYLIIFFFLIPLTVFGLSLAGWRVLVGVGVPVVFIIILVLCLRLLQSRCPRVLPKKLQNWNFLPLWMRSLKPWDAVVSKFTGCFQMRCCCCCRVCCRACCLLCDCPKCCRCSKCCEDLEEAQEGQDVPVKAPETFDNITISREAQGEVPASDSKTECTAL
Kind of assay: cell-based or functional assay.

Assay [2] addresses T1, human SLC34A2. The assay is described as follows: FACS, OVCAR3 cells. The method, then: (§1) In another testing, cell based binding of hu Abs on human SLC34A2 expressing cells were assessed using flow cytometry. Briefly, the HEK293/H_SLC34A2, OVCAR3 and RMG-1 cells were incubated with hu Abs. After incubation at 4° C. for 60 minutes, the cells were washed with FACS buffer twice, then stained with fluorescent conjugated secondary antibody at 4° C. for 30 minutes. After that the cells were washed twice and analyzed by flow cytometry.
(In general: A flow cytometer gives signals particle by particle.)

Assay [3] has as its target T1, human SLC34A2. The assay is described as follows: FACS, OVCAR3 cells. This is another data set of the same source.
For assay [4], the target named is T1, human SLC34A2. Kind of assay: FACS, RMG-1 cells. The method, then: as §1
The target in assay [5] is T2, Rhesus SLC34A2 (Rhesus, UniProt F7HDA3 1-690).
T2 construct: whole, on cells
T2 sequence: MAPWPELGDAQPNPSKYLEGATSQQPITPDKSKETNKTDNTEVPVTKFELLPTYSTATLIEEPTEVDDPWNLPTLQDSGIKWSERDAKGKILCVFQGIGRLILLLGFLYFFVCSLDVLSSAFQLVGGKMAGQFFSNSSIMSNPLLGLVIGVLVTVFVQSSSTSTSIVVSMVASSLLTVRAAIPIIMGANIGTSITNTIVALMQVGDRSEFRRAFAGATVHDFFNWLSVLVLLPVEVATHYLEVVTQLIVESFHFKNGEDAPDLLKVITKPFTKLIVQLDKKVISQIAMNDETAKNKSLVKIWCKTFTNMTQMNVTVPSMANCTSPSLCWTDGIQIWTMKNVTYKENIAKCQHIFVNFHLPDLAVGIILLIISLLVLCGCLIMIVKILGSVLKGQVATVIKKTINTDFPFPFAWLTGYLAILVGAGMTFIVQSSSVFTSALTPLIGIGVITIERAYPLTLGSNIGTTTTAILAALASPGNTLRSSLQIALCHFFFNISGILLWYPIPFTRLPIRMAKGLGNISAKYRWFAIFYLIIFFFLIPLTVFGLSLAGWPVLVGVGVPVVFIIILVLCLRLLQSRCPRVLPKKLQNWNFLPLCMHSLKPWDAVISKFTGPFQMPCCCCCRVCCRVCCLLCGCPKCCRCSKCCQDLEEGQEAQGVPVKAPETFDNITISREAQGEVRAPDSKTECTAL
Kind of assay: FACS, HEK293/Rhesus SLC34A2 cells.

Assay [6] concerns the target T1, human SLC34A2. The assay is described as follows: FACS, HEK293/human SLC34A2 cells. The method, then: as §1
Assay [7] concerns the target T1, human SLC34A2. Kind of assay: FACS, HEK293/human SLC34A2 cells. The method, then: Briefly, OVCAR3 cells or HEK293 cells expressing human SLC34A2 were incubated with chimeric antibodies (from 200 nM, 4 folds dilution, 8 points). After incubation at 4° C. for 60 minutes, the cells were washed with FACS buffer twice, then stained with fluorescent conjugated secondary antibody at 4° C. for 30 minutes. After that the cells were washed twice and analyzed by flow cytometry.
The source holds these as a separate data set.

The target in assay [8] is T1, human SLC34A2. The assay is described as follows: FACS, OVCAR3 cells. In outline:
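Flow cytometry binding: cells (OVCAR3, or HEK293 transfected with human SLC34A2) exposed 60 min at 4° C to chimeric hIgG1, 8-point 4-fold series starting 200 nM. Washed, stained 30 min at 4° C with fluorescent anti-human secondary, then analysed.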
This is another data set of the same source.

The target in assay [9] is T1, human SLC34A2. The assay is described as follows: FACS, OVCAR3 cells. The source holds these as a separate data set.
Assay [10] concerns the target T2, Rhesus SLC34A2. The assay is described as follows: FACS, HEK293/Rhesus SLC34A2 cells. The method, then: Briefly, the Rhesus SLC34A2 expressing HEK293 engineering cells (HEK293/Rhesus_SLC34A2) were incubated with chimeric Abs (from 200 nM, 4 folds dilution, 8 points). After incubation at 4° C. for 60 minutes, the cells were washed with FACS buffer twice, then stained with fluorescent conjugated secondary antibody at 4° C. for 30 minutes. After that the cells were washed twice and analyzed by flow cytometry.
The source holds these as a separate data set.

In assay [11] the target is T1, human SLC34A2. The assay is described as follows: cell-based or functional assay. This is another data set of the same source.
In assay [12] the target is T1, human SLC34A2. Kind of assay: cell-based or functional assay. This is another data set of the same source.
The target in assay [13] is T1, human SLC34A2. Kind of assay: FACS, HEK293/human SLC34A2 cells. The method, then:
The PTM-derisked VH chains were first tested for their impact on target binding. Cell based binding of PTM Abs on human SLC34A2 expressing cells were assessed using flow cytometry. Briefly, the HEK293/H_SLC34A2 cells were incubated with PTM Abs (from 200 nM, 4 folds dilution, 8 points). After incubation at 4° C. for 60 minutes, the cells were washed with FACS buffer twice, then stained with fluorescent conjugated secondary antibody at 4° C. for 30 minutes. After that the cells were washed twice and analyzed by flow cytometry.
This is another data set of the same source.

The target of assay [14] is T2, Rhesus SLC34A2. The assay is described as follows: FACS, HEK293/Rhesus SLC34A2 cells. The source holds these as a separate data set.
Another assay has as its target T3, Cynomolgus SLC34A2 (Cynomolgus, UniProt A0A2K5UHY1 1-690).
T3 construct: whole, on cells; also called Cyno SLC34A2
T3 sequence: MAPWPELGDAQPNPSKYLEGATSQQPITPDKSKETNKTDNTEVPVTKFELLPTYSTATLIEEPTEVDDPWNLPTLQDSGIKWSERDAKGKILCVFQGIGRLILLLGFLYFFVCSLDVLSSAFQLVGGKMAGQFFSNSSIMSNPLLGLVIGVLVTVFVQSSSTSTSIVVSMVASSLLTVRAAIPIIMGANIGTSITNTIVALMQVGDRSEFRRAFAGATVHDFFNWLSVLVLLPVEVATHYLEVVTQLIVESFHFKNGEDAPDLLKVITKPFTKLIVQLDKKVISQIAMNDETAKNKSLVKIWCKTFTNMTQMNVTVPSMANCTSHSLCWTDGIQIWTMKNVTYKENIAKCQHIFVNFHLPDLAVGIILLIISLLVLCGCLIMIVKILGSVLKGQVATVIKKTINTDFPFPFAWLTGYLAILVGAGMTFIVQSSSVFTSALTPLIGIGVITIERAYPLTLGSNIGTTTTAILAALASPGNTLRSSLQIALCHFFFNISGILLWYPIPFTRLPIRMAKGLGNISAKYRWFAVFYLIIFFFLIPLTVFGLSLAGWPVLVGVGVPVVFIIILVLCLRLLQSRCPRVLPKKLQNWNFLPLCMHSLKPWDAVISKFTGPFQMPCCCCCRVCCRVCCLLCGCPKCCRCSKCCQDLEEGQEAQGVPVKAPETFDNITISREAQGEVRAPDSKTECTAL
The assay is described as follows: FACS, cells expressing Cynomolgus SLC34A2.

In assay [15] the target is T1, human SLC34A2. Kind of assay: FACS, RMG-1 cells. On the procedure:
Based on the foregoing cell-based binding results, some of the chimeric antibodies were selected for further cell based binding on human SLC34A2 expressing cells using flow cytometry. RMG-1 cells were incubated with the selected chimeric antibodies (from 200 nM, 4 folds dilution, 8 points). After incubation at 4° C. for 60 minutes, the cells were washed with FACS buffer twice, then stained with fluorescent conjugated secondary antibody at 4° C. for 30 minutes. Afterwards the cells were washed twice and analyzed by flow cytometry.
This is another data set of the same source.

B1: 91C9F1.p1.z4 hIgG1 (antibody, V domains shown)
VH: QVQLVQSGAEVKKPGSSVKVSCKASGFFFTEYIIHWVRQAPGQGLEWMGGIIPNNDVTNYKQNFRGRVTITADESTSTAYMELSSLRSEDTAVYYCARWRNAYYSAMDSWGQGTTVTVSS
VL: DIVVTQSPSSLSTSVGDRVTITCTASQDVGTAVAWYQQKPGKSPKLLIYWASTRHTGVPERFTGSGSGTDFTLTISSVQPEDVATYFCQQYRTSPLTFGVGTKLELK
notes: humanized hIgG1
What is called EC50 is the concentration that produces a half-maximal response. Lower therefore signals higher potency in that assay. Consider B1, for which the “ADCC reporter EC50” value with human SLC34A2 [1] worked out at 3.14 nM. In addition, the “ADCC reporter Top (MFI)” value in the assay with human SLC34A2 [1] was 137000 MFI. Also, the EC50 with human SLC34A2 [2] was 2.71 nM; with human SLC34A2 [3] it was 1.12 nM; with human SLC34A2 [4] it was 3.22 nM; with Rhesus SLC34A2 [5], 3.2 nM; with human SLC34A2 [6], 1.12 nM. The Top with human SLC34A2 [2] was found to be 20200 MFI; with human SLC34A2 [4] it was 9820 MFI; with human SLC34A2 [6], 34600 MFI. The “Top (MFI)” value came to 34600 MFI with human SLC34A2 [3] and 6720 MFI with Rhesus SLC34A2 [5].

B2: 91C9F1.p1.z10 hIgG1 (antibody, V domains shown)
VH: QVQLVQSGAEVVKPGSSVKVSCKTSGFFFTEYIIHWVRQSPGQGLEWIGGIIPNNDVTNYKQNFRGRATLTADKSTSTAYMELSSLRSEDTAVYYCARWRNAYYSAMDSWGQGTTVTVSS
VL: DIQMTQSPSSLSTSVGDRVTITCTASQDVGTAVAWYQQKPGKSPKLLIYWASTRHTGVPERFSGSGSGTDFTLTISSLQPEDVATYFCQQYRTSPLTFGGGTKVEIK
notes: humanized hIgG1
As for B2, in the assay with human SLC34A2 [1], the “ADCC reporter EC50” value stood at 2.37 nM. Further, in the assay with human SLC34A2 [1], the “ADCC reporter Top (MFI)” value came out at 138000 MFI. Moreover, the EC50 with human SLC34A2 [2] came out at 3.96 nM; in the assay with human SLC34A2 [3], 2.32 nM; with human SLC34A2 [4] it was 3.91 nM; with Rhesus SLC34A2 [5], 4.2 nM; with human SLC34A2 [6], 2.32 nM. The Top amounted to 22300 MFI in the assay with human SLC34A2 [2], 9590 MFI with human SLC34A2 [4] and 38100 MFI with human SLC34A2 [6]. Further, the “Top (MFI)” value stood at 38100 MFI in the assay with human SLC34A2 [3] and 9230 MFI with Rhesus SLC34A2 [5].

B3: xi55E5B6D12 hIgG1 (antibody, V domains shown)
VH: QVQLQQSGAEVVNSGASVKMSCKASGYTFTTYNMHWVKQTPGQGLEWIGAIYPGNGDTSYNQRFKGKATFTADRSSGTAYMQLSSLPSEDSAVYYCARGGYANGALVDWGQGTLVTVSA
VL: DILMTQSHKFMSTSVGDRVTITCKASQDVGTAVAWYQNKPGQSPKLLIFWTSTRHTGVPDRFTGSGSGTDFTLTISNVQSEDLADYFCQQYSRQPLTFGPGTKLEIK
notes: chimeric, hIgG1
For the molecule B3, the EC50 with human SLC34A2 [7] was 1.8 nM; in the assay with human SLC34A2 [8], 3.31 nM; with human SLC34A2 [9] it was 5.1 nM; with Rhesus SLC34A2 [10], 2.46 nM; in the assay with human SLC34A2 [13], 1.48 nM; with Rhesus SLC34A2 [14], 4.9 nM. Also, the EC50 with Cynomolgus SLC34A2 stood at 2.7 nM; with human SLC34A2 [15], 3.48 nM. For the same molecule, the “Top (MFI)” value in the assay with human SLC34A2 [7] stood at 115000 MFI; with human SLC34A2 [8], 42900 MFI; with human SLC34A2 [9], 71400 MFI; with Rhesus SLC34A2 [10], 15900 MFI; in the assay with human SLC34A2 [13], 30400 MFI; in the assay with Rhesus SLC34A2 [14] it was 46400 MFI. Further, the “Top (MFI)” value was determined as 3540 MFI with Cynomolgus SLC34A2 and 9500 MFI with human SLC34A2 [15]. In addition, the “ADCC reporter EC50” value with human SLC34A2 [11] came to 3 nM. Further, the “ADCC reporter Top (MFI)” value with human SLC34A2 [11] was 530000 MFI. The “cytotoxicity EC50” value in the assay with human SLC34A2 [12] is 0.69 nM. Also, the “cytotoxicity Inhibition %” value in the assay with human SLC34A2 [12] worked out at 96.7%.
